Where “and” joins values, the source holds several entries; their conditions need not be identical. Identical values can stand only once. Like-named read-outs stand apart in the source and are kept apart here. Each block holds one substance with its values, some of them ahead of it.
What was measured:
[1] = molecular target: Meiothermus taiwanensis LonA, wild type, full length (Meiothermus taiwanensis); experiment: cryo-EM structure; wild-type MtaLon 1 μM (as hexamer) without any nucleotide (MtaLon-Apo)
[2] = molecular target: Meiothermus taiwanensis LonA, wild type, full length (Meiothermus taiwanensis); experiment: as above; remark: listed apart in the source
[3] = molecular target: Meiothermus taiwanensis LonA, wild type, full length (Meiothermus taiwanensis); experiment: cryo-EM structure; wild-type MtaLon 1 μM (as hexamer) incubated with 5 mM ADP overnight; single-particle reconstruction without symmetry
[4] = molecular target: Meiothermus taiwanensis LonA, wild type, full length (Meiothermus taiwanensis); experiment: as above; remark: listed apart in the source
[5] = molecular target: MtaLon-M217A (Meiothermus taiwanensis); experiment: cryo-EM structure; MtaLon-M217A 1 μM (as hexamer) with 10 μM casein and 5 mM ADP, 3 h
[6] = molecular target: MtaLon-S678A (Meiothermus taiwanensis); experiment: cryo-EM structure; MtaLon-S678A 1 μM (as hexamer) with 10 μM casein and 5 mM ADP, overnight
[7] = molecular target: MtaLon-S678A (Meiothermus taiwanensis); experiment: as above; remark: listed apart in the source
[8] = molecular target: fluorescein isothiocyanate (FITC)-labeled casein (UniProt P02662); experiment: fluorescence polarisation; MtaLon samples serially diluted (5 µM to 0.01 µM) mixed with 1.25 µM FITC-casein, 1 mM ADP, 4 °C, 3 h; triplicates
[9] = molecular target: MtaLon-Y224S (Meiothermus taiwanensis); experiment: cryo-EM structure; MtaLon-Y224S 1 μM (as hexamer) incubated with 5 mM ATPγS overnight
[10] = molecular target: MtaLon-Y224S (Meiothermus taiwanensis); experiment: cryo-EM structure; 10 μM ΔN-E613K and 5 mM ADP incubated with 1 μM MtaLon-Y224S at 4 °C for 1 h, mixture purified on Superose 6 Increase; 5+1 heteromeric complex
[11] = molecular target: MtaLon-Y397A/S678A (Meiothermus taiwanensis); experiment: cryo-EM structure; MtaLon-Y397A/S678A 1 μM (as hexamer) with 10 μM casein and 5 mM ATPγS, 3 h

UniProt P02662, sequence (P02662 16-214): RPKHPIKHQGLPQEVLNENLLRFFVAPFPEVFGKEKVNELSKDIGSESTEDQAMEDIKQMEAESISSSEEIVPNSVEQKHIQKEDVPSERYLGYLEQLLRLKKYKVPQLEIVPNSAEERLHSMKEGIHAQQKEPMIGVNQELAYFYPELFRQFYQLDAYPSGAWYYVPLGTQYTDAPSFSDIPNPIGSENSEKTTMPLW

Substance: MtaLon-S678A (enzyme)
stoichiometry N [6]: 6 | stoichiometry N [7]: 5 | Kd [8]: 1.38 µM

Substance: MtaLon-Y397A/S678A (enzyme)
stoichiometry N [11]: 5 and 6

The remaining lines, values ahead:

stoichiometry N [1]: 5 and 6 | stoichiometry N [2]: 3 and 4 | stoichiometry N [3]: 5 and 6 | stoichiometry N [4]: 3 and 4
Substance: Meiothermus taiwanensis LonA, wild type, full length (enzyme)

stoichiometry N [5]: 5 and 6
Substance: MtaLon-M217A (enzyme)

stoichiometry N [9]: 5 and 6 | stoichiometry N [10]: 5 and 6
Substance: MtaLon-Y224S (enzyme)

— PMC10643698
